What all share (assay): IEDB peptide-MHC binding, purified MHC/competitive/fluorescence; ≥ and ≤ were set here for values at or beyond the usual limits of such assays
Common to all, as to conditions: source organism: Plasmodium falciparum

The target in test [1] is HLA-A*01:01.
Test [2] deals with HLA-A*03:01.
Test [3] has as its target HLA-B*07:02.
The target in test [4] is HLA-A*02:01.
Test [5] deals with HLA-A*24:02.
The target of test [6] is HLA-B*44:02.

Experimental findings from the Immune Epitope Database (IEDB) are described below.

As a reminder, the IC50 is the concentration needed to halve the response being measured. Low values mean greater potency, high ones weaker potency. In the case of FLDYYKHLSY, the IC50 in test [1] is 0.646 µM; in test [2], at least 100 µM. As to NVNFLQYHFK, the IC50 in test [2] was at least 100 µM. Take NPQQSVGENG: the IC50 in test [3] is at least 100 µM. In test [2], PVATGNQYLK returned an IC50 of at least 328 µM. Consider FNDVPIKMEY, for which, in test [1], the IC50 is 0.498 µM.

With NSILIKPEKY, in test [1], the IC50 was at least 109 µM. The same measure, in the same setting: as for DTDSNHTPSN, the figure is 5.88 µM. Take LSSYVSLPLK: in test [2], the IC50 amounted to 0.654 µM.

Consider ILNNSKFNK, for which the IC50 in test [2] came to 0.42 µM. As for FVLENGVCI, the IC50 in test [3] was at least 284 µM; in test [4], 4.17 µM. With RYNLYDKKL, the concentration for half-maximal inhibition (IC50) in test [5] was determined as 0.172 µM.

Regarding RASHTTPVL, the IC50 in test [3] came to 0.258 µM. Take KVKDSWITL: the values for the IC50 in test [3] and in test [4] were 0.458 µM and 4.01 µM, respectively. NSYKEWISKK returned an IC50 in test [2] of 7.37 µM. For MIRIKKKLIL, the IC50 in test [3] was at least 100 µM. For the sequence YIHKLILSV, the IC50 in test [4] worked out at 1.15 µM.

Sequence FLPTGAFKA came in with an IC50 in test [4] of 1.39 µM. KYLFIPSHN returned an IC50 in test [5] of 6.12 µM.

Sequence RTFQKDELLK registered an IC50 in test [2] of 24.2 µM. Take AVLATILMV: in test [4], the IC50 stood at 23.6 µM.

In turn, NEYSLFITS returned an IC50 in test [6] of at least 100 µM. LPLKIENREY: the IC50 in test [3] was at least 100 µM.

ENDYAYLNKY registered an IC50 in test [1] of 42.2 µM. Turning to STCYGNRFNY, the half-inhibitory concentration (IC50) in test [1] was 54 µM; in test [2] it was at least 100 µM.

Regarding GEEDETHIY, the IC50 in test [1] is at least 261 µM. In the case of STCRFFVCK, in test [2], the half-maximal inhibitory concentration (IC50) is 5.9 µM.

Regarding PFHKKFISFF, the IC50 in test [5] worked out at 0.0356 µM.

In test [5], AYVSCYRVSF displayed an IC50 of 0.0569 µM. In test [1], LSDTLQLHED registered an IC50 of at least 100 µM. In the case of SIYHKSSTY, the half-inhibitory concentration (IC50) in test [1] was at least 100 µM; in test [2], 5.93 µM. NDNNFAECY gave an IC50 in test [6] of at least 100 µM. In test [6], YENKSLTHYL showed an IC50 of at least 112 µM. On to KPECVCKENL, for which the IC50 in test [3] was at least 206 µM. Turning to IFFNNENSI, the IC50 in test [5] was determined as 0.0569 µM. With SECDIGLIY, the IC50 in test [1] and in test [6] was at least 100 µM in each case. As for ATCKYGFNK, the IC50 in test [2] was determined as 4.75 µM.

Sequence KLKYVTESLK returned an IC50 in test [2] of 3.34 µM.

Take NIFHHLIYV: the IC50 in test [4] amounted to 2.29 µM. Regarding VENNFPCSLY, the IC50 in test [6] was 6.02 µM; in test [2] it was at least 85.4 µM. As for EYPLHQEHTY, in test [5], the IC50 stood at 0.999 µM.

Turning to RTFKKMMDEY, the IC50 in test [1] and in test [2] was at least 100 µM each time.

On to FEWHTLSKEY, for which the IC50 in test [6] turned out to be 19.1 µM.

Consider FPCSLYKDEI, for which the IC50 in test [3] is at least 100 µM.

Sequence IPDNDKNSNY yielded an IC50 in test [1] of 14.7 µM. Regarding CLINNSSYI, the IC50 in test [4] is 3.82 µM. In turn, TIIYIHLFIL registered an IC50 in test [3] of 13.7 µM. In turn, NEKNDVKNN showed an IC50 in test [6] of at least 100 µM. In turn, NFGRGQNYW came in with an IC50 in test [5] of 0.229 µM. GEEKRASHTT: the IC50 in test [6] stood at 10 µM. MDMKNYGTNL: the IC50 in test [3] is at least 100 µM.

In test [4], YLNTNVNDGL showed an IC50 of 2.83 µM.

On to NLFEQLSCY, for which, in test [1], the IC50 was at least 100 µM.

For the sequence SLFITSDHL, the IC50 in test [4] was determined as 7.12 µM. Regarding DMSNEYSLFI, the IC50 in test [4] was at least 100 µM. For GSYIYIDTIK, in test [2], the IC50 was at least 70.8 µM. For HLSYNSIYHK, in test [2], the IC50 came out at 44.2 µM.

In test [1], LTPVATGNQY came in with a 50% inhibitory concentration (IC50) of 2.56 µM. In turn, NENNENNFL came in with an IC50 in test [6] of at least 100 µM. As to KEMKHIFNRI, the IC50 in test [6] was determined as 39.2 µM. In test [5], SYFTYDSEEY displayed an IC50 of 22.3 µM. As to SLIKQNKYV, in test [4], the IC50 came to 29.9 µM. For KEYNNSEITI, in test [6], the IC50 came to 11 µM.

KLPLESSTI: the IC50 in test [5] worked out at 0.214 µM; in test [4], 2.12 µM. Take IPHYTFLDYY: the IC50 in test [3] was at least 100 µM.

NNEDYKNVDY: the IC50 in test [1] turned out to be 7.99 µM. In test [6], KEKHLNNIF had an IC50 of at least 100 µM. With SAFLPTGAFK, in test [2], the IC50 came to 0.345 µM.

IEIVERSNY: in test [6], the IC50 turned out to be 8.03 µM. In test [3], MNRTFKKMM gave an IC50 of at least 100 µM. In test [4], FQYNDDASI yielded an IC50 of 0.275 µM. DEYIHKLIL: in test [6], the IC50 was at least 100 µM. DMKNYGTNLF returned an IC50 in test [5] of 5.3 µM. KLNIWRTFQK came in with an IC50 in test [2] of 2.5 µM. With FIPSHNSFI, in test [4], the IC50 was determined as 31 µM. The sequence IKLNIWRTF yielded a 50% inhibitory concentration (IC50) in test [5] of 1.42 µM. The sequence NYMGNPWTE registered an IC50 in test [5] of 37.9 µM. Consider KMYSEFKSI, for which, in test [4], the IC50 worked out at 1.02 µM. In test [2], FIPSHNSFIK returned an IC50 of at least 100 µM.

In the case of SPNDNINVT, the IC50 in test [3] came to 36.1 µM. On to FLQYHFKEL, for which the IC50 in test [4] amounted to 14.6 µM.

For the sequence ASDQPKQYEQ, the IC50 in test [1] was at least 126 µM. KVKSKCNDIK gave a 50% inhibitory concentration (IC50) in test [2] of 39.3 µM. For the sequence KPHECVCNKQ, the IC50 in test [3] was at least 100 µM. In turn, SILPDINKSK gave an IC50 in test [2] of 12.7 µM.
